In PMC5063714 (Journal of medicinal chemistry, 2016):
Like-named read-outs stand apart in the source and are kept apart here. Square brackets hold non-standard residues; d marks the D form. Ends that are not written are not given here. * marks the point of attachment. Lys(Me3) = C[N+](C)(C)CCCC[C@H](N)C(=O)O; diethyl = not defined here; Bz = O=C(c1ccccc1)*

Key:
Assay in all cases: AlphaScreen or HTRF
[1] = biological target: chromodomain of CBX8 (human) (UniProt Q9HC52)
chromodomain of CBX5 [2] = biological target: chromodomain of CBX5 (human)
chromodomain of CBX7 [3] = biological target: T1, chromodomain of CBX7 (human, UniProt O95931 8-62)
T1 sequence (looked up): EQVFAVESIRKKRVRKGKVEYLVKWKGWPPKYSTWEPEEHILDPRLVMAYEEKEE

chromodomain of CDYL2 [4] = biological target: T2, chromodomain of CDYL2 (human, UniProt Q8N8U2 1-75)
T2 sequence (looked up): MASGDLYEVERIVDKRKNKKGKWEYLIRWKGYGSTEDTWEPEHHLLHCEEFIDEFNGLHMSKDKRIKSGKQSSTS

chromodomain of CBX4 [5] = biological target: T3, chromodomain of CBX4 (human, UniProt O00257-1 8-65)
T3 sequence (looked up): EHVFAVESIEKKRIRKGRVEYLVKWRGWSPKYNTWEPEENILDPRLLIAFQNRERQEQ

chromodomain of CBX5 [6] = biological target: chromodomain of CBX5 (human); remark: listed apart in the source
chromodomain of CBX7 [7] = biological target: T1, chromodomain of CBX7; remark: listed apart in the source
chromodomain of CBX8 = biological target: T4, chromodomain of CBX8 (human, UniProt Q9HC52 8-61)
T4 sequence (looked up): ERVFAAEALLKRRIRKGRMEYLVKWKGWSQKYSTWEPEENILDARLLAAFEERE

chromodomain of CDYL2 [8] = biological target: T2, chromodomain of CDYL2; remark: listed apart in the source
chromodomain of CBX4 [9] = biological target: T3, chromodomain of CBX4; remark: listed apart in the source
[10] = biological target: chromodomain of CBX4 (human) (UniProt O00257)
[11] = biological target: chromodomain of CBX7 (human) (UniProt O95931)
[12] = biological target: T5, chromodomain of CDYL2 (human) (UniProt Q8N8U2)
T5 sequence: T2 sequence (looked up)

[13] = biological target: chromodomain of CBX8 (human) (UniProt Q9HC52); remark: listed apart in the source

Sequence of chromodomain of CBX5 (human) (Q9UN86 18-75): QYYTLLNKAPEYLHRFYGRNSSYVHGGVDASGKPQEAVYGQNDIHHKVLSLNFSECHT

compound 1 (UNC3866) (peptide)
IC50 [1]: 1300 nM

B1: compound 5 (peptide)
peptide: Bz-FAL[Lys(Me3)]S-OMe
IC50 (chromodomain of CBX5 [2]): 49 µM | IC50 (chromodomain of CBX7 [3]): 2600 nM | IC50 (chromodomain of CDYL2 [4]): 570 nM | IC50 (chromodomain of CBX4 [5]): 6.9 µM

B2: compound 43 (peptide)
peptide: {4‑tBu‑Bz}-FVLK(diethyl)S-OMe
modifications: reading uncertain
IC50 (chromodomain of CBX5 [6]): > 60 µM | IC50 (chromodomain of CBX7 [7]): 3.1 µM | IC50 (chromodomain of CBX8): 700 nM | IC50 (chromodomain of CDYL2 [8]): 750 nM | IC50 (chromodomain of CBX4 [9]): 7.9 µM

B3: compound 7 (peptide)
peptide: Bz-FAL[Lys(Me3)]
modifications: also: C-terminal R2 = -H in place of -CO-Ser-OMe (no Ser)
IC50 (chromodomain of CBX5 [2]): > 60 µM | IC50 [10]: > 60 µM | IC50 [11]: > 60 µM | IC50 [12]: 37 µM | IC50 [13]: > 60 µM

B4: compound 4 (peptide)
peptide: Bz-AL[Lys(Me3)]S-OMe
SMILES: COC(=O)[C@H](CO)NC(=O)[C@H](CCCC[N+](C)(C)C)NC(=O)[C@H](CC(C)C)NC(=O)[C@H](C)NC(=O)c1ccccc1
IC50 (chromodomain of CBX5 [2]): > 60 µM | IC50 [10]: > 60 µM | IC50 [11]: > 60 µM | IC50 [12]: 16 µM | IC50 [13]: > 60 µM
